In article PMC3808164 one finds fold decrease in binding against full-length VP1/2 and efficiency of coimmunoprecipitation as percent of full-length GFP-VP1/2 data, which are given here for 2 substances.

Common to all, as to test: co-IP
Assay [1] has as its target GFP-tagged VP1/2 with a single deletion of regions 1–4 (C terminus intact) (pseudorabies virus (PRV)).
Assay [2] addresses GFP-tagged VP1/2[change]^S (deletion of region 6^S in the context of full-length VP1/2) (pseudorabies virus (PRV)).
In assay [3] the target is GFP-tagged VP1/2 regions 6 and 7 (deletion of regions 1–5) (pseudorabies virus (PRV)).
Assay [4] addresses GFP-tagged VP1/2 with the region 6^S deletion combined with deletion of regions 1–4 (pseudorabies virus (PRV)).
Assay [5] has as its target GFP-VP1/2[change] (pseudorabies virus (PRV)).

For the substance “p50/dynamitin (from UniProt Q13561 1-401) (natural protein)”, the fold decrease in binding against full-length VP1/2 in assay [1] is 9 fold; in assay [2], 4 fold; in assay [3], 11 fold; in assay [4] it was 23 fold.

For “p150/glued dynactin subunit (from UniProt Q14203 1-1278) (natural protein)”, the fold decrease in binding against full-length VP1/2 in assay [1] and in assay [2] was 5 fold in each case. Besides, the efficiency of coimmunoprecipitation as percent of full-length GFP-VP1/2 in assay [5] was 79%.
